In the DeepSol protein solubility set:

Experiment: soluble on expression in E. coli; label from the status in PepcDB or PDB records

| Sequence | soluble on expression in E. coli |
| --- | --- |
| MSLSNDISILFVEDDKEVRAQISDFLTSNMFKDVYVANNGKDGLLKYNIHKPDIVLSDLNMPIMDGLEMSRAIKALDENTPILLITSNFEKNVTEAAVDIGIEGCLFKPLSLNRVEKILTKYIEKIMFQREFKNKQKLLEQYKSIIDISSSVTKTDINGIITYVNNPFCDMSGYSKDELLGKNHTIISHPDNSKEFYEEIYSTLRDKKIWRGHIKNRRKNGDSYYESSVIAPILDENDEIVECISLKQDITELYAEGHHHHHH | soluble |
| MSLSNGELAILVFGYPETMANQVIAYFQEFGTILEDFEVLRKPQAMTVGLQDKQFVPIFSGNSWTKITYDNPASAVDALLENGAVFNGVLLGVIPYTKDAVERLQKRKLTSSEDIGSGITTAAAETKHKDQGTIENDIPSQYMAKLDIKDGSNLFISTNTTSGTKVDPKKEQKKGVVGTVLRYFFGFNEGHHHHHH | soluble |
| MSLSNIAVSEKDLQRFCRDLLKQSLPDEEAEVIAETLVDADLRGVTSHGVQRVAGYLKRMEDGIIERKTDISVVQDSFATALLDANNGWGQVAGVKAMEMAIQKAGQYGTSFVGVSNSNHFGTASFYTRMAAEKGFIGISMTNASPIMVPFGAKEPSLGPNPISISIPAGEGKKPIILDMSTSNVARGKIMVAKKNKESIPEGWAITKDGKQTTDADEAWEGFVLPMGPKGSGLAIIIDILSGVLTGSLFGKRIPRQYDDPYPQQLGHLFGAINIENFGEPELFYQNVLEKIEETISSEPSEGFDQVYMPGDMESQRKKEYKENGIPLSQEIINELRKTGEKYGVDLEHYLSQNKQREGHHHHHH | soluble |
| MSLSNNKQSSTNDGKISIVTSTNVYADIAKNIVGKYGSAKAIIKNSATDPHDFEPTTQDAKELSSTNIIVANGLGYDSWMNKLASSVDKKPVLVGEELMKLKKGANPHIWYSLSMPTEYVDYLVKRLSKIDSKHKAYFEANGKKYLAKINQVKALAKNSKKTDKMVFVSEPVFDYALAEAGYKIGDKDFEKAVENNTDPSPKTINRMTNDIKNKKIAFFVNNTQSSSSTVKTFVKLAKQNNIPVLNVRETIPNHTTYLNWMKENYQNLANISKEGHHHHHH | not soluble |
| MSLSNSPLPPNATPMERALAAVTERLEAIPLPYPDLWNPDTCPAGHLPWLAWTLSVDDWKADWSDAVKRSRLRSAMAIQRRKGTANSVRMVVASFGGAVTIREWWQQQPRGQPHTFELTLTLNGSDGRAASARFVDEVIAEVERTKPVRSHFGFVQGLQATGNVSLVTGVRIINYRRLSMMAQGEGHHHHHH | not soluble |
| MSLSPLEMALLVHRGEFHLRELEPELPLEKFLKNADPKKTRKFLEKCGKEELERQKELIRKHNVKLVSFWEDDYPQHLREIRYPPAVLFVRGDAELLKEKCVGVVGTRRPTSYGVNVTKRFVKLLSEYFVIVSGMAFGIDSVAHKEALSSGGKTVAVLGTGVDVVYPRSNERLFHEIVKNGCVVSEYPMGTRARKHHFPARNRIIAGLSDAIIVTEAPIKSGALITVKFALESGRDVFAVPGDIDRKTSEGTNYLIKSGAYPLTDEEDLETHFGIRRIASPSLDDDKKKIYDLLRSSPKTVDELVEELGWSVSEVLRVISEMELMGMIWFDGGAYRLLGEGHHHHHH | soluble |
| MSLSPLSKLDKIAVSGNKQLTENEVRKESGLEIGEFVIGISNGKTEDTLKKNTLIKDATVSKEGINDVQINITEFKTIGYQQQDGKYYDVLESGIMLTDQPRQFPIGNDLLFQNFKNGKTLEKMVAQINKLPKDVVSSISEVIYSPTKTDKNHIKLYMNDGNQVSADISTFAEKMQHYPAIVAQLAKGQKGVIDIEVGSYFQSYYQQNAEKKAAEEAAKEKKETNEGHHHHHH | soluble |
| MSLSQASSTDTPFVIAGRTYGSRLLVGTGKYKDLDETRRAIEASGAEIVTVAVRRTNIGQNPDEPNLLDVIPPDRYTILPNTAGCYDAVEAVRTCRLARELLDGHNLVKLEVLADQKTLFPNVVETLKAAEQLVKDGFDVMVYTSDDPIIARQLAEIGCIAVMPLAGLIGSGLGICNPYNLRIILEEAKVPVLVDAGVGTASDAAIAMELGCEAVLMNTAIAHAKDPVMMAEAMKHAIVAGRLAYLAGRMPRKLYASASSPLDGLIDEGGSHHHHHH | soluble |
| MSLSQQVPAASFTLLDGQKLSTQDLKGKVYLVNFWATSCATCVKEMPNMIQTYNKFKGQGLEFVAVAMSYDPPMYVMNYSQTRQLPFKVAMDADGAAARAFGDVQLTPTTFLVDRNGRILRRYVGEPEWASFETLLRDTLAKQAEGLITITTDPNSSSVDKLAAALEHHHHHH | soluble |
| MSLSRFQFVADHLHAFEVKWLCAGVEVARSSFYAWLAGAEGRAARKAADEALAARIRMVHDEDNTYGAPRITAELNDSVPDGERVNHKRVARVMRDAGIAGYRRRRRVKTTTPDPAKQKVPDLLKRDFTAPAPNEKYVGDITYLPLATGSNLYMATVIDCFSGRVAGWAIAEHMRTELVEDALKAADALRGSLAGAVFHSDHGSQYTSTDFASLCEKLGVTQSMGGVGSSADNALAESFNASLKREVLQDRSHWPDSATCRRQVFRWLVRYNLRRRHSRCRYSSPVSYERSHAPATLPEAAEGHHHHHH | not soluble |
| MSLSRYEKIISARWIITVETDGEVLENHAIAIRDGKIAAIIPAADAAGLEADERLELPDHVLMPGLINLHGHSAMSLLRGLADDKALMDWLTNYIWPTEGKHVHDDFVFDGSLLAMGEMIRGGTTTINDMYFYNAAVARAGLASGMRTFVGCSILEFPTNYASNADDYIAKGMAERSQFLGEDLLTFTLAPHAPYTVSDDTFRKVVTLAEQEDMLIHCHIHETADEVNNSVKEHGQRPLARLQRLGLLSPRLVAAHMVHLNDAEVELAARHGLSTAHNPASNMKLASGISPVSKLMDAGVAVGIGTDGAASNNKLDMLAETRLAALLAKVGTLDPTSVPAAAAIRMATLNGARALGIADKVGSVKVGKQADLIALDLAQLETAPAFDPISHVVYAAGREQVSHVWVKGRALMRERKLTTLDESDLKARAGDWRNRILAKEGHHHHHH | soluble |
| MSLSSVRDKYNFNSEWLLYVGDTPEAKEVRFQDTDWKKVTLPRPFNEDEAFRLSIEQLTDTVMWYRKHFRLPADSKNKKVFVEFEGVRQGADFYINGEYIGLHENGAMAVGFDLTPYIKYGQENVMAVRIDNNWNYKERATGTKYQWSDRNFNANYGGIPKNVWLHVTDKLYQTLPLYSNLKTTGVYIYAEDIRVKSRKAVVHAESEIKNEYNRDKKVAYKVEVFDRDGKSIKSFEGTQTVVKPGETATLEASAEIDGLHFWSWGYGYLYTVKTSLWVDGRKVDEVATRTGFRKTRFGKGMIWLNDRVIQMKGFAQRTSNEWPGVGMSVPAWLSDYSNGLMVEDNANLVRWMHITPWKQDIESCDRVGLIQAMQAGDAEKDREGRQWEQRTELMRDAIIYNRNNPSILFYECGNESISREHMIEMKAIRDKYDPHGGRAIGSREMLDIREAEYGGEMLYINKSKHHPMWAMEYCRDEGLRKYWDEYSYPYHKNGEGNNSFRSAMTNKVQKKVDARAYNHNQDSFTIENVIRWFDYWRERPGTGDRVSSGGVKIIFSDTNTHYRGVENYRRSGVTDAMRIPKDPFYAHQVMWDGWVDIENPRIHIVGHWNYKEDVVKPVYVVSSAEKVELFLNGKSLGNGQRDYHFLYTFKDVAFVPGKLEAVGYDKNGKECCRAELQTAGKPEQIKLSVIQSPKGWKADGADMVLLQVEVMDKDGRRCPLANDLIHFDVEGPAEWRGGIAQGKDNYILSKDLPVECGINRALIRSLTTPGAVRITAKADGLQSAEISLSSAPVEVKNGLSNYIPGDELEGRLTRGETPLTPSYKDTKVDVNILSAVAGANQDETIKSFDDNELSEWKNDGRLNSAWITYSLERAARVDEICMKLTGWRLRSYPLEIYAGDELIWSGETEKSLGYIHLNVKPVLTNEITIRLKGASKEGDGFGQIVEVAAPAAGELDLFKAKNGDKTNHELRIVEIEFKENLWQEGHHHHHH | soluble |
| MSLSTIRIGGAAVNQTPIDWENNVKNILDAIEEAKNANVEILCLPELCITGYGCEDLFLTDWVAETAIEYCFEIAASCTDITVSLGLPMRIAGITYNCVCLVENGIVKGFSAKQFLANEGVHYETRWFTAWPRNHTTTFLYNDVKYPFGDVLYNVKDARIGFEICEDAWRTDRVGIRHYEKGATLVLNPSASHFAFGKSAIRYDLVIGGSERFDCTYVYANLLGNEAGRMIYDGEVLIAHKGKLIQRNDRLSFKNVNLIYADIATDSAETPETVLTQDDLEKEFEFWEATSLGLFDYMRKSRSKGFVLSLSGGADSSACAIMVAEMIRKGLKELGLTAFLQKSNMETLFDLPALQHLPFEEQAKKITAVFLTTAYQSTRNSGDETYTSAKTLAESIGATFYNWSVDEEIEQYKATIENVIERPLTWEKDDITLQNIQARGRAPIIWMLTNVKQALLITTSNRSEGDVGYATMDGDTAGGIAPIAGVDKDFIRSWLRWAEKNRNQHGLHIVNKLAPTAELRPSEYTQTDERDLMPYDVLARIERKAIKERLSPVQVYTALLTEGPYTKNEFKYWVKKFFRLWSINQWKRERLAPSFHMDDFNIDPRSWYRFPILSSGFAKELNDLDQEGHHHHHH | soluble |
| MSLSTLRIAMTAADIPLTLGQPDQGYEGNRFTGIPLYDALVEWDLSQGEKPSGLVPGLATEWHIDPQNTSRWIFTLRPGVKFHDGTEVNADAIVWNVDKVLNKAAPQYAPGQIGNTLSRMPTLTGAEKIDDHTVALTTSEPDALLPYNITNLFIVSPTAWQKQYDAVPASVGDSAARSKQAWTAFAAHAVGSGPFKLEKLVPRQQLILDKNPDYWNKDRIPRVDKVVLIPLPEANARTAALLSKQVDWIEAPAPDAIDQIKSQGFHLYANTQPHLWPWQFSFEKGSPWQDIRVRKAANLCLNRAELKSYLGGYMTEATGVYEADSPWHGKPTFQIKYDPDVARQLMTEAGYSASKPLHVTVATSASGSGQMQPLPMNEYIQQSLKSCFFNVDIKVVEWNTLFTNWRLGARDPSAKGIDAINVSAAVNDPYFGLIRFSTAKAFPPVATNWGYFSTPETEKLAAAVKHAFTPAEMNKAAGELHAALVDQVPFLFVAHDVGPRAISPAVTGVVQPQSWFIDLSLVSKKEGHHHHHH | soluble |
| MSLSTQTVTIKSLGAQGDGIAHCPDGPVYVPFALPGETVAIAKVKDQGTVMSITEASADRRDPVCRHFGPEGINGTCGGCSLQHLADQPYHAFKRELVVSALRSKGLTPPVDDLVICRPGERRRAVFAARKTEKGLLLGFSQANSHHIVAIEECPVTSPGIVSRFDAIRAIGLSMVANAEPFRITVLETLSGLDISVEGIKSVNDKQRRTLTETVLAMRGIARVSLSGEILIEPQKPIIEFGGIPVSPPAGGFTQATKQAEDAMAELMLAHVGKSKRIADLFCGSGTFALRLARIGRVHAVEAEDKALKALDFAARNTQGLKPVSVEKRDLFRRPLMTSELKNYDAVVFDPPRAGAEVQCKELARSTVKKIVAVSCNPLTLARDLAILTEGGYRVTRVTPVDQFLWSPHVEAVAVLEKEGHHHHHH | soluble |
| MSLSTSPKPSPIPSPVLGQKPNASQSLLAWCREVTKNYRGVKITNFTTSWRNGLSFCAILHHFRPDLIDYKSLNPQDIKENNKKAYDGFASIGISRLLEPSDMVLLAIPDKLTVMTYLYQIRAHFSGQELNVVQIEENSSKSTYKVGNYETDTNSSVDQEKFYAELSDLKREGHHHHHH | soluble |
| MSLSYTKIFGLGGVHEIGKSTLVIHHEKSIAIIDAGIKFADSSTTGLHGIIPNYSYLKKHEDQIEGIFVTHGHEDHIGGIIYLLQQVKINKIFAPKIAIEYLKYKLEDRGLRIKVEFIEIKKDDTHHLGSLVVDFWTAQHSIPDAFGIRVKTPDGSVLCTGDFRIDYRPIGNYTDFSKLEQIGKEGLTLLLSDSTNAMRPNHSPSENDILKDIEKIMLAAKRKIIITTFASNLIRIKVIIELAEKLNKKIAVFGRSMVNGIAIGKELGYIKTPDSSFIDKKSIDQYEDKDIVILTTGSQGEQLAALSRMSYEKHPQVSIRKNDTIIFSSSPIPGNKMKIELLINRLYKLGAIIKENGVDGYLHTSGHAYQEEHEKIFSIAKPKYFFPYHGEYRMSVVHGQTAIRSGVKPENVIIPGIGEVVKMEEGHHHHHH | not soluble |
